Test results reported in publication PMC9712993, “A noncanonical RNA-binding domain of the fragile X protein, FMRP, elicits translational repression independent of mRNA G-quadruplexes”.

Target: RGG+CTD (Homo sapiens, UniProt Q06787 527-632)
Assay: EMSA; 10 mM Tris-HCl, 100 mM KCl, 5 mM Mg(OAc)2, pH 7.4, BSA, on ice 1 h; mRNA EMSA 0.4 pmol RNA + 20 pmol protein in 18 ul; oligo EMSA 0.2 (G17: 0.4) pmol RNA + 22 pmol protein in 7 ul; FP 5.5 pmol RNA + 300 pmol protein in 100 ul; EMSA gels 4% PAGE 0.5x TBM (2.5 mM MgCl2), RT
Settings: protein: recombinant; tags: N-MBP, C-His6; label: 5' FAM; single strand

UUUUUUUUUUUUUUUUUU (ssRNA) [(U)18]: binds.
